# Read-outs that look alike come from different tables or passages of the source.
# T1: MukB long hinge (LH; amino acid residues 568–863) (E. coli, UniProt P22523 568-863)
# T1 construct: MukB, E. coli, residues 568-863: dimeric globular hinge domain and 20% of the coiled-coil region; also called LH (MBP cleaved); LH2; source: NEBExpress cells (pMAL-c5X), purified (amylose, Factor Xa cleavage, HiTrap Q XL, SEC); not shown: MBP, N-terminal, cleaved
# T1 sequence (looked up): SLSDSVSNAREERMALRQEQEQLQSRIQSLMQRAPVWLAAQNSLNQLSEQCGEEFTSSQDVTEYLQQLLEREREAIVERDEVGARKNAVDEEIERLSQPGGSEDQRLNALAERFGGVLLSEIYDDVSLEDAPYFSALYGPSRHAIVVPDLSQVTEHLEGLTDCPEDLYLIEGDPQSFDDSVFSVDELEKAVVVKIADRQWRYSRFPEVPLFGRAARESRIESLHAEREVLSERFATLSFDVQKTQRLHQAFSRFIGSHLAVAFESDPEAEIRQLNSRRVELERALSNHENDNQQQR
# T2: full-length MukB (wild type) (E. coli, UniProt P22523 1-1486)
# T2 construct: MukB, E. coli, full length; also called WT MukB; unlabeled MukB; source: purified as described (Zawadzka et al., 2018)
# T2 sequence (looked up): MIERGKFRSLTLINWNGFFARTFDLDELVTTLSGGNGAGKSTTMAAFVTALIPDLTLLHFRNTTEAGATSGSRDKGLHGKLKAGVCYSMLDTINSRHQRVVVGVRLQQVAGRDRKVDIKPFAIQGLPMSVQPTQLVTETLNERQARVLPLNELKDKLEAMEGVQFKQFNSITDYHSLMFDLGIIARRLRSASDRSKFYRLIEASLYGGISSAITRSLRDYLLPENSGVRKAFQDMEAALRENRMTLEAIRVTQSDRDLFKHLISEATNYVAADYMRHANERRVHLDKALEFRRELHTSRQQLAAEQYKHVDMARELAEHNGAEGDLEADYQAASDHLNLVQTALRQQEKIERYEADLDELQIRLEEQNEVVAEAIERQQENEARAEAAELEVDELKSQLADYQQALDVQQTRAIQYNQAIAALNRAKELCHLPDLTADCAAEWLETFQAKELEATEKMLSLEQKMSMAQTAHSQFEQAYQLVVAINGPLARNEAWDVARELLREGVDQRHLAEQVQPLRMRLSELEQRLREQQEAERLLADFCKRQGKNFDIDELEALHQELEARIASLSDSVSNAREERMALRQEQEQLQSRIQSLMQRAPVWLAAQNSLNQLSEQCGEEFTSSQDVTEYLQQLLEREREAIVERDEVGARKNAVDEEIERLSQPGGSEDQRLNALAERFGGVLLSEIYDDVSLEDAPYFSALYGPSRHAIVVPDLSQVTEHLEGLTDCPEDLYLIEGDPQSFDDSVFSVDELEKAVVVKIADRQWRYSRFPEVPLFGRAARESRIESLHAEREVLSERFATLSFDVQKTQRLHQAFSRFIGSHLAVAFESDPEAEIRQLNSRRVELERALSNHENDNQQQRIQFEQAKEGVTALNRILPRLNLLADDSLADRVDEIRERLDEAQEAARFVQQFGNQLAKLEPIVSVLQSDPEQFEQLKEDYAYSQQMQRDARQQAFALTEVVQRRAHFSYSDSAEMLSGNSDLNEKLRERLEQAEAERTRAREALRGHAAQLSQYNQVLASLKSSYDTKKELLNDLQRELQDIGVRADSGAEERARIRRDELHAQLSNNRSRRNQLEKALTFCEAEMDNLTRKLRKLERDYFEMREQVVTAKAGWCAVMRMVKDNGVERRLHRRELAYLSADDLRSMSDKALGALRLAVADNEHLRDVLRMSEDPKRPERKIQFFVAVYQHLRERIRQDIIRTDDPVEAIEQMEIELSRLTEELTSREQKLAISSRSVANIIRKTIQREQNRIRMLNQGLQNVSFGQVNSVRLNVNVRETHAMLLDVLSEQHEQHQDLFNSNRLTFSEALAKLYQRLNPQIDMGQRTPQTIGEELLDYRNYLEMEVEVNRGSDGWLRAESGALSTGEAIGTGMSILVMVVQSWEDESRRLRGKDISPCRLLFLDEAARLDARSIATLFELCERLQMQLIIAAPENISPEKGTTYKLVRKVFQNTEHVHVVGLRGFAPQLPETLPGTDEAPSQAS
# T3: full-length MukB^KKK (D697K D745K E753K) (E. coli, UniProt P22523 1-1486, D697K | D745K | E753K)
# T3 construct: MukB, E. coli, full length, with three hinge substitutions
# T3 sequence (looked up): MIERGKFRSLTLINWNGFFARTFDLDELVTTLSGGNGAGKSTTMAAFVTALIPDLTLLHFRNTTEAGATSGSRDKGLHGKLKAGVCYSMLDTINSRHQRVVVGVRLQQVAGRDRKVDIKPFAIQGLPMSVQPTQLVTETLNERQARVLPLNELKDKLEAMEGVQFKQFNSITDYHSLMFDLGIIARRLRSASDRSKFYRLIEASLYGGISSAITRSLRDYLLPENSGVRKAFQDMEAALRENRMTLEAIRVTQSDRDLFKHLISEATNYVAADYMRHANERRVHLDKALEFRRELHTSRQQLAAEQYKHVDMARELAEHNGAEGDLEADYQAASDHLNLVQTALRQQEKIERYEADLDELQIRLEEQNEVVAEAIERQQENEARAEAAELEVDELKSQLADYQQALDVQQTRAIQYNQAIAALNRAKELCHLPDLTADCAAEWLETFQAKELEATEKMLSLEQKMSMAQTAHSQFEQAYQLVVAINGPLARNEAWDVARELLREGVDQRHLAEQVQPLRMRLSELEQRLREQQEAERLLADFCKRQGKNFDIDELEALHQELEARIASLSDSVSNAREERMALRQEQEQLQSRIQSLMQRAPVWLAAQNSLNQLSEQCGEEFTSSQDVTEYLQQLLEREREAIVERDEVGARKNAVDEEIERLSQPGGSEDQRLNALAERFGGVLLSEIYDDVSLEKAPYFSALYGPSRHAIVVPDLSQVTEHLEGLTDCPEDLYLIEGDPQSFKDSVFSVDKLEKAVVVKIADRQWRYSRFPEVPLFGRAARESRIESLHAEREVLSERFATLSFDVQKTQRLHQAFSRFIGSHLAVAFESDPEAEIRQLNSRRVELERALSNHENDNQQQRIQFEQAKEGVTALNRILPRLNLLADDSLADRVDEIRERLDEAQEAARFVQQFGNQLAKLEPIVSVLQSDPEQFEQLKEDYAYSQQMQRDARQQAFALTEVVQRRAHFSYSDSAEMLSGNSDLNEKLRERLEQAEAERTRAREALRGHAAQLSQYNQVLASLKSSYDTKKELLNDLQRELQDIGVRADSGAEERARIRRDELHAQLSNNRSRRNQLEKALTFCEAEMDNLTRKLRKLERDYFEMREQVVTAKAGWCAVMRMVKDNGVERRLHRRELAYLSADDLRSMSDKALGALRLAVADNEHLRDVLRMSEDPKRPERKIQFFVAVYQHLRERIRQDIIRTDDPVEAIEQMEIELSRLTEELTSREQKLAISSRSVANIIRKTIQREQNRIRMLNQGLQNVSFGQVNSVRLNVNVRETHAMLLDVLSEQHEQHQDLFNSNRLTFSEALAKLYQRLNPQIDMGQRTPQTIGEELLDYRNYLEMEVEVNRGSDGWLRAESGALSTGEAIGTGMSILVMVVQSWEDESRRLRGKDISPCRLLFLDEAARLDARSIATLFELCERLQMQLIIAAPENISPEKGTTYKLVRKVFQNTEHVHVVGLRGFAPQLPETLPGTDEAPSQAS
# Key:
# [1] = biological target: T1, MukB long hinge (LH; amino acid …); experiment: ITC; 100 µM MatP titrated into 10 µM LH at 25 °C; one-site model; three repeats; conditions: both partners purified
# [2] = biological target: T1, MukB long hinge (LH; amino acid …); experiment: native MS; proteins buffer exchanged into 200 mM ammonium acetate pH 8.0, alone or mixed in different ratios (two or three components, with or without 50 bp DNA), 10 min on ice; conditions: both partners purified
# [3] = biological target: the molecule itself; experiment: as above
# [4] = biological target: T1, MukB long hinge (LH; amino acid …); experiment: native gel or EMSA; native PAGE; MatP or variants (7 µM) mixed with LH and/or 50 bp DNA at 1:1(:1), 30 min on ice; Coomassie and ethidium bromide staining; conditions: both partners purified
# [5] = biological target: the molecule itself; experiment: native MS; proteins buffer exchanged into 200 mM ammonium acetate pH 8.0, alone or mixed in different ratios (two or three components, with or without 50 bp DNA), 10 min on ice; remark: listed apart in the source
# [6] = biological target: T2, full-length MukB (wild type); experiment: fluorescence correlation spectroscopy (FCS); competition: MatP-Cy3B fixed at 1 nM, MukB at 400 nM; ParC variants at 10-fold, unlabeled MatP at 50-fold, DNA at 2.5-fold molar excess; conditions: both partners purified
# [7] = biological target: T3, full-length MukB^KKK (D697K D745K E753K); experiment: fluorescence correlation spectroscopy (FCS); titration at constant 1 nM MatP-Cy3B; 20 mM Tris-HCl pH 7.5, 50 mM NaCl, 0.3 mg/mL BSA, 2 mM DTT, 0.05% Tween-20; 22 °C; fitted to the Hill equation; conditions: both partners purified
# [8] = biological target: T2, full-length MukB (wild type); experiment: as above; conditions: both partners purified
binder,measurement,setting,value
"MatPΔ18C (1–132), C-terminal 6xHis-tag (domain or fragment, E. coli, UniProt P0A8N0 1-132, looked up, MatP, E. coli, residues 1-132 (deletion of the 18 C-terminal residues); also called MatPΔ18C-His; MatP2; source: overexpressed, purified as previously published (Nolivos et al., 2016) with an added SEC step; not shown: His6, C-terminal, kept) MKYQQLENLESGWKWKYLVKKHREGELITRYIEASAAQEAVDVLLSLENEPVLVNGWIDKHMNPELVNRMKQTIRARRKRHFNAEHQHTRKKSIDLEFIVWQRLAGLAQRRGKTLSETIVQLIEDAENKEKY",Kd,[1],590 nM
same,dH,[1],-16.8 kcal/mol
same,stoichiometry N,[1],0.96
same,stoichiometry N,[2],1 MatP dimer per LH dimer
same,stoichiometry N,[3],2
"MatP^4A (K71A, Q72A, R75A, and R77A) (domain or fragment, E. coli, UniProt P0A8N0 1-132, looked up, MatP, E. coli, residues 1-132 (MatPΔ18C) with four substitutions; source: site-directed mutagenesis, purified using the same protocol as MatP) MKYQQLENLESGWKWKYLVKKHREGELITRYIEASAAQEAVDVLLSLENEPVLVNGWIDKHMNPELVNRMAATIAAARKRHFNAEHQHTRKKSIDLEFIVWQRLAGLAQRRGKTLSETIVQLIEDAENKEKY",binding result,[4],binds
same,stoichiometry N,[5],2
"full-length ParC, N-terminal 6xHis-tag (enzyme, E. coli, UniProt P0AFI2 1-752, looked up, ParC subunit of topoisomerase IV, E. coli, full length; also called His-ParC; ParC2; source: overexpressed, purified as previously published (Nolivos et al., 2016) with an added SEC step; not shown: His6, N-terminal, kept) MSDMAERLALHEFTENAYLNYSMYVIMDRALPFIGDGLKPVQRRIVYAMSELGLNASAKFKKSARTVGDVLGKYHPHGDSACYEAMVLMAQPFSYRYPLVDGQGNWGAPDDPKSFAAMRYTESRLSKYSELLLSELGQGTADWVPNFDGTLQEPKMLPARLPNILLNGTTGIAVGMATDIPPHNLREVAQAAIALIDQPKTTLDQLLDIVQGPDYPTEAEIITSRAEIRKIYENGRGSVRMRAVWKKEDGAVVISALPHQVSGARVLEQIAAQMRNKKLPMVDDLRDESDHENPTRLVIVPRSNRVDMDQVMNHLFATTDLEKSYRINLNMIGLDGRPAVKNLLEILSEWLVFRRDTVRRRLNYRLEKVLKRLHILEGLLVAFLNIDEVIEIIRNEDEPKPALMSRFGLTETQAEAILELKLRHLAKLEEMKIRGEQSELEKERDQLQGILASERKMNNLLKKELQADAQAYGDDRRSPLQEREEAKAMSEHDMLPSEPVTIVLSQMGWVRSAKGHDIDAPGLNYKAGDSFKAAVKGKSNQPVVFVDSTGRSYAIDPITLPSARGQGEPLTGKLTLPPGATVDHMLMESDDQKLLMASDAGYGFVCTFNDLVARNRAGKALITLPENAHVMPPVVIEDASDMLLAITQAGRMLMFPVSDLPQLSKGKGNKIINIPSAEAARGEDGLAQLYVLPPQSTLTIHVGKRKIKLRPEELQKVTGERGRRGTLMRGLQRIDRVEIDSPRRASSGDSEE",stoichiometry N,[3],2
same,fold decrease in MatP-Cy3B binding to MukB at 10-fold excess of competitor,[6],3 fold
"Cy3B-labeled MatP-Cys-His (domain or fragment, E. coli, Cy3B maleimide on the single cysteine engineered into the C-terminal linker, MatP, E. coli, residues 1-132 (MatPΔ18C); C-terminal linker between MatP and its 6xHis-tag with the engineered cysteine; Labeling efficiency 89%; also called MatP-Cy3B; Cy3B-MatP; source: purified as MatP, labeled with Cy3B maleimide, excess dye removed by SEC) MKYQQLENLESGWKWKYLVKKHREGELITRYIEASAAQEAVDVLLSLENEPVLVNGWIDKHMNPELVNRMKQTIRARRKRHFNAEHQHTRKKSIDLEFIVWQRLAGLAQRRGKTLSETIVQLIEDAENKEKYSDPNSSSVDKLCAAALE",Kd,[7],~1600 nM
same,Kd,[8],~250 nM

# Source: PMC8523169, “Competitive binding of MatP and topoisomerase IV to the MukB hinge domain” (eLife, 2021)
